Results reported in US20140227179A1 (published 2014).

Molecular target: T1, MUC5ac mucin (PAM4 antigen) from CaPan1 human pancreatic carcinoma (human, UniProt P98088 28-5654, limits assumed, heavily glycosylated native mucin)
T1 construct: The antigen was never used as a pure recombinant protein; also called CaPan1 Ag; CaPan1 antigens
Test: ELISA on target mucin antigen (FIG. 9)

B1: PAM4-F(ab′)2 (other)
chain 1: EVQLQESGPELVKPGASVKMSCKASGYTFPSYVLHWVKQKPGQGLEWIGYINPYNDGTQYNEKFKGKATLTSDKSSSTAYMELSRLTSEDSAVYYCARGFGGSYGFAYWGQGTLITVSA
chain 2: DIVMTQSPAIMSASPGEKVTMTCSASSSVSSSYLYWYQQKPGSSPKLWIYSTSNLASGVPARFSGSGSGTSYSLTISSMEAEDAASYFCHQWNRYPYTFGGGTKLEIK
Question: For B1, which EC50 is on record?
Answer: The EC50 was 1.83 nM.
